This assay deals with Hcf106 G6CV14C (Pisum sativum). In words: cross-linking.

Hcf106 G6CV14C (natural protein): the stoichiometry N (in general, a count of units in the complex or per binding partner) is < 8.
